Here are results for ten variants from IntAct's records for PubMed 23460737.

First the molecules themselves.
B1: Protein THEMIS (Homo sapiens), Q8N1K5-1 (parent)
chain: MALSLEEFVHSLDLRTLPRVLEIQAGIYLEGSIYEMFGNECCFSTGEVIKITGLKVKKIIAEICEQIEGCESLQPFELPMNFPGLFKIVADKTPYLTMEEITRTIHIGPSRLGHPCFYHQKDIKLENLIIKQGEQIMLNSVEEIDGEIMVSCAVARNHQTHSFNLPLSQEGEFYECEDERIYTLKEIVEWKIPKNRTRTVNLTDFSNKWDSTNPFPKDFYGTLILKPVYEIQGVMKFRKDIIRILPSLDVEVKDITDSYDANWFLQLLSTEDLFEMTSKEFPIVTEVIEAPEGNHLPQSILQPGKTIVIHKKYQASRILASEIRSNFPKRHFLIPTSYKGKFKRRPREFPTAYDLEIAKSEKEPLHVVATKAFHSPHDKLSSVSVGDQFLVHQSETTEVLCEGIKKVVNVLACEKILKKSYEAALLPLYMEGGFVEVIHDKKQYPISELCKQFRLPFNVKVSVRDLSIEEDVLAATPGLQLEEDITDSYLLISDFANPTECWEIPVGRLNMTVQLVSNFSRDAEPFLVRTLVEEITEEQYYMMRRYESSASHPPPRPPKHPSVEETKLTLLTLAEERTVDLPKSPKRHHVDITKKLHPNQAGLDSKVLIGSQNDLVDEEKERSNRGATAIAETFKNEKHQK
partner: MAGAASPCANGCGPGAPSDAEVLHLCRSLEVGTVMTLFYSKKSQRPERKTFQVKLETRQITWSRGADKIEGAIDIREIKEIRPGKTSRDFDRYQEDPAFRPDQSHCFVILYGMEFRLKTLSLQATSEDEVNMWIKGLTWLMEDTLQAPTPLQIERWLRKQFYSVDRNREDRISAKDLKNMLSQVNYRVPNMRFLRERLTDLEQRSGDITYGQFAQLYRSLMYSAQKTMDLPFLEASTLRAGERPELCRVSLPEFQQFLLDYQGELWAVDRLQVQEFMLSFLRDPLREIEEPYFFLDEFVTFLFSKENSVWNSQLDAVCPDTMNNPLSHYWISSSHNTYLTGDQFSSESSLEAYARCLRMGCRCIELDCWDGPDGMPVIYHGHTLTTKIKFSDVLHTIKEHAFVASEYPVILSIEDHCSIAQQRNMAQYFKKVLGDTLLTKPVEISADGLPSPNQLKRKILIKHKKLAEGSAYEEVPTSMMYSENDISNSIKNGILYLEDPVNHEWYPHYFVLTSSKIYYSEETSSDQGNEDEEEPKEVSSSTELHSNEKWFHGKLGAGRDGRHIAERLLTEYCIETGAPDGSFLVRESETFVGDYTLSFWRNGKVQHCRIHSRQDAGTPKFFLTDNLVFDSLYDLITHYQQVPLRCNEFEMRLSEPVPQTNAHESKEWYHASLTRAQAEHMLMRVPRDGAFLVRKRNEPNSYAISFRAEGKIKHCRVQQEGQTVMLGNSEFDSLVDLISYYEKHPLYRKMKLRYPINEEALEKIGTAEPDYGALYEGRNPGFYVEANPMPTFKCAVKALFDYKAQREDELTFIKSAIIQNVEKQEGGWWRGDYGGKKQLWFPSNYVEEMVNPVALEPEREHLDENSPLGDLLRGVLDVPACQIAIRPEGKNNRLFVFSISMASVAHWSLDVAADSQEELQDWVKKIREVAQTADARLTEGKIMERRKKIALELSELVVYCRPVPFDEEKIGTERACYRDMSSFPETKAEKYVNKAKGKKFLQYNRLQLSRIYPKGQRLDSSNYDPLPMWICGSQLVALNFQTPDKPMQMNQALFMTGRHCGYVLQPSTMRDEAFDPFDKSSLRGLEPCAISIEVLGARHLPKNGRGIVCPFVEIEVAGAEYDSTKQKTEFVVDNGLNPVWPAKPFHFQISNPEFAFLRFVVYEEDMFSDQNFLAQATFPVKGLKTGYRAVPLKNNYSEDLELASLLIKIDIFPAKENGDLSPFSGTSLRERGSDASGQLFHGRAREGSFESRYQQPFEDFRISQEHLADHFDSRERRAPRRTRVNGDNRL
B2: Protein THEMIS (Homo sapiens), Q8N1K5-1 (parent)
chain: B1 chain
B3: Protein THEMIS (Mus musculus), Q8BGW0 (parent)
chain: MALSLEEFVYSLDLRTLPRVLEIQSGIYFEGSVYEMFGNECCLSTGEVIKITGLKIKKMMAEICEGAIGGCESQKPFELPMNFPGLFKVMADKTPYLSIEEITRTVNIGPSRLGHPCFYHLKDIKLENLIIKQGEPIRFNSVEEINGETLVNCGVVRNHQSHSFTLPLSQEGEFYECEDEHIYTLKEIVEWKIPKNRTRTVKLTDFSNKWDSTNPFPEDFYGTLILKPVYEIQGVLKFQKDIVRILPSLDVEVKDITDSYDANWFLQLLSTDDLFEMTSKEFPVVAEVVEISQGNHLPQSILQREKTIVIHKKYQASRILASEIRSNFPKRHFLIPISYKGKFKRRPREFPTAYDLQIAKSRKETLHVVATKAFHTLHKELSPVSVGDQFLVHHSETTEVVFEGTRKVNVLTCEKVLNKTREDAQLPLYMEGGFVEVIHDKKQYQISELCTQFCWPFNVKVAVRDLSIKDDILAATPGLQLEEDITDSYLLISDFANPEECWEIPMSRLNMTVRLVNGSSLPADAGLLQVRSFVEEITEEQYYMMRRYESSLSHPPPRPPKHPSAEEMKLTLLSLAEERTINLPKSLKSHHVDRPKKLPSDESGQDSRAPVGFQNDVADVERQKSKHGPLQPQAPL

In one assay the parent is B1. The settings on record: with plcg1_human PLCG1, P19174.
For the variant P555A;P558A, the “effect of a mutation on the interaction” value is “decreasing interaction strength”.

The next assay covers variants of B2. The settings on record: with grb2_human GRB2, P62993.
grb2_human GRB2, P62993, sequence (P62993 whole entry, looked up): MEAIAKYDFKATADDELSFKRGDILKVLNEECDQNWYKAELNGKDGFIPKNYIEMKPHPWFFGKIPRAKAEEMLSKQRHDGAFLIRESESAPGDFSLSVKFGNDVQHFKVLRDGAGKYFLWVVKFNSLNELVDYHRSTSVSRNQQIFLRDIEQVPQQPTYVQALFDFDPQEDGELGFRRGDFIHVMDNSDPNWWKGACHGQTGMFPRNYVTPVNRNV
Turning to K559A, the “effect of a mutation on the interaction” value was “disrupting interaction strength”.
Regarding P557A, the “effect of a mutation on the interaction” value is “disrupting interaction strength”.
On the same count and under the same terms, as for R556A, the entry is “disrupting interaction strength”; as for P554A, “disrupting interaction strength”.

Variants of B2 are the subject of another assay. The note with it: with grb2_human GRB2, P62993. This is another data set of the same source.
For the variant P555A;P558A, the “effect of a mutation on the interaction” value was “disrupting interaction strength”.

The next assay covers variants of B2. The note with it: with grb2_human GRB2, P62993. The source holds these as a separate data set.
For P555A;P558A, the “effect of a mutation on the interaction” value was “disrupting interaction strength”.
In the case of P582A;P585A, the “effect of a mutation on the interaction” value is reported as “with no effect”.

In a further assay the parent is B2. The note with it: with grb2_human GRB2, P62993. This is another data set of the same source.
Take Y540F;Y541F: the “effect of a mutation on the interaction” value is reported as “disrupting interaction strength”.

The variants in the next assay derive from B2. The settings on record: with grb2_human GRB2, P62993. The source holds these as a separate data set.
Y540F;Y541F: the “effect of a mutation on the interaction” value was “with no effect”.
On the same count and under the same terms, in the case of Y540A;Y541A it was “with no effect”.

The variants in another assay derive from B3. The settings on record: with grb2_human GRB2, P62993.
Turning to P557A;P560A, the “effect of a mutation on the interaction” value is recorded as “disrupting interaction strength”.
